Assay results: the nanobody polyreactivity screen of Harvey et al. (2022)

Assay: yeast display, Sf9 membrane polyspecificity reagent, FACS + sequencing; frameworks hold sequencing errors
Procedure, shortened: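 After 36–48 hours of galactose induction, yeast (Saccharomyces cerevisiae BJ5465) displaying a synthetic nanobody library were stained at 4 °C for 1 hour with 10% biotinylated, detergent-solubilized Sf9 membrane reagent. Streptavidin microbeads enriched the stained cells before FACS sorting into low and high (top ~1%) gates on anti-HA and streptavidin fluorescence. Each clone's polyreactivity label reflects its gate of origin.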

| Sequence | polyreactivity (PSR sort gate) |
| --- | --- |
| QVQLVESGGGLVQAGGSLRLSCAASGSIFKIYAMGWYRQAHGKERELVAAISRRGSSTSYADSVKGRFTISRDNAKNTVYLQMNSLKPEDTAVYYCAARYISNPMDYWGQGTQVTVSS | high polyreactivity |
| QVQLVESGGGLVQAGGSLRLSCAASGSTFYVNAMGWYRQAPGKERELVAAISSGGSTYYADSVKGRFTISRDNAKNTVYLQMNSLKPEDTAVYYCAAASPWGSDYDYWGQGTQVTVSS | low polyreactivity |
| QVQLVESGGGLVQAGGSLRLSCAASGITFDANTMGWYRQAPGKERELVAVITDTGSTNYADSVKGRFTISRDNAKNTVYLQMNSLKPEDTAVYYCNADAEPSSGTSANNDYWGQGTQVTVSS | low polyreactivity |
| QVQLVESGGGLVQAGGSLRLSCAASGRTFRLYAMGWYRQAPGKERQLVAAIDGNGGSTYYADSVKGRFTISRDNAKNTVYLQMNSLKPEDTAVYYCAVSVSVYLDYRRDHQRGYDYWGQGTQVTVSS | low polyreactivity |
| QFQLVESGGGLVQAGGSLRLSCAASGSIFGGYAMGWYRQAPGKEREFVAAITRSGVSTYYADSVKGRFTISRDNEKNTVYLQMNSLKPEDTAVYYCAADQTAWRLRVYLRQYRYEYWGQGTQVTVSS | high polyreactivity |
| QVQLVESGGGLVQAGGSLRLSCAASGRIFPSNVMGWYRQAPGKERELVASISARGGSTYYADSVKGRFTISRDNAKNTGYLQMNSLKPEDTAVYYCHKRRSNGYSQHKLDYWGQGTQVTVSS | low polyreactivity |
| QVQLVESGGGLVQAGGSLRLSCAASGIIFSWYSMGWYIEAPGKERELVAAISWSGGRTYYSDSVKGRFTISRDNAKNNVYLQMNSLKPEDTAVYYCAAERNRYSHWEARYYWGQGTQVTVSS | high polyreactivity |
| QVQLVESGGGLVQAGGSLRLSCAASGRTFSSNAMGWYRQAPGKEREFVAVISSGGSTYYADSVKGRFTISRDNAKNTVYLQMNSLKPEDTAVYYCAAAVGPSGYYYESDYWGQGTQVTVSS | high polyreactivity |
| QVQLVESGGGLVQAGGSLRLSCAASGRTFKYNAMGWYRQAPGKERELVAAITSSGGRTYYADSVKGRFTISRDNAKNTVYLQMNSLKPEDTAVYYCAARGYPSDYKYEYNYWGQGTQVTVSS | high polyreactivity |
| QVQLVESGGGLVQAGGSLRVSCAASGSTFSAYAMGWYRPAPGKERELVAAISASGGSTYYADSVKGRFTISRDNAKNTVSLQMNSLKPEDTAVYYCNADRWKYELDYWGQGTQVTVSS | high polyreactivity |
| QVQLVESGGGLVQAGGSLRLSCAASGSTFYLNAMGWYRQAPGKERELVAAISRRGGSTYYADSVKGRFTISRDNAKNTVYLEMNSLKPDDTAVYYCNRARVYGYYAPFDYWGQGTQVTVSS | high polyreactivity |
| QVQLVESGGGLVQAGGSLRLSCAASGRIFYYNAMGWYRPAPGKERELVAAIDWSGGSTYYADSVKGRFTISRDNAKNTVYLQMNSLKPEDTAVYYCNAPFRYVPPEGSGPYDYWGQGTQVTVSS | low polyreactivity |
| QVQLVESGGGLVQAGGSLRLSCAASGRTFYYYAMGWYRQAPGKERELVAGISWSAGSTYYADSVKGRFTISRDNAKNTVYLQMNSLKPEDTAVYYCAARYWQSYRSQVTHSSTLDYWGQGTQVTVSS | low polyreactivity |
| QVQLVESGGGLVQAGGSLRLSCAASGRTFGLYAMGWYRQAPGKERELVAAISSGDSTNYADSVKGRFTISRDNAKNTVYLQMNSLKPEDTAVYYCAAAQQRWWQWYYYWGQGTQVTVSS | high polyreactivity |
| QVQLVESGGGLVQAGGSLRLSSAASGRTFYVNAMGWYRQAPGKERELVAAITRSSGSTHYADSVKGRFTISRDNAKNTVYLQMNSLKPEDTAVYYCAADSTYRKYYYWGQGTQVTVSS | high polyreactivity |
| QVQLVESGGGLVQGGGSLRLSCASSGSIFGWNAMGWYRPAPGKERELVAAISFSGSCTFYADSVKGRFTISRDNAKNTVYLQMNSLKPEDTAVYDCAAEPYSVYEYYYWGQGTQVTGSS | high polyreactivity |
| QVQLVESGGGLVQAGGSLRLSCAASGNIFPYYTMGWYRQAPGKERELVAAISSSGSTYYADSVKGRFTISRDNAKNTVYLQMNSLKPEDTAVYYCAARLYPYGWYDYWGQGTQVTVSS | high polyreactivity |
| QVQLVESGGGLVQAGGSLRLSCAASGNTFLIYAMGWYRQAPGKERELVAGITSSGSTYYADSVKGRFTISRDNAKNTVYLQMNSLKPEDTAVFYCAAEYIFYLYYDTAELYDYWGQGTQVTVSS | low polyreactivity |
| QVQLVESGGVLVQAGGILRLSCAASGNIVVYYAMGWSRQAPGKERELVASITTSGGSTYYADSVKGRFTISRDNATNTVYFQMNSLKPEDTAVYYCAALYYYWLYYWGQGTQVTVSW | low polyreactivity |
| QVQLVESVGGLVQAGGSLRLSCAASGSIFFSYAMGWYRQAPGKERELVAGINWSGGSTYADSVKGRFTISRDNAKNTVYLQMNSLKPEDTAVYYCAAKYYSERSRYHYWGQGTQVTVSS | low polyreactivity |
| QDQLVESGGGLVQAGGSLRLSCAASGSIFQYYAMGWYRQAPGKERELVAAISYSGDGTFYADSVKGRFTISRDNAKNSVYLQMNSLKPVDTAVYYCAASSTGYGGSTYYYWGQGTQVTVSS | low polyreactivity |
| QVQLVESGLGLVQEGGCLRVSCAASGSIFSHYAMGWDSQAPGKDREVVAAITGGGITYYADSVKGRFTISRDNAKNTVYLQMNSLIPEDTAVYYWATDSLIFTIFDYSGQGTQVTVSS | low polyreactivity |
| QVQLVESGRGLVQAGGSLRLSCAASGFTLWIYAKGWYRQAPGKESELVAAITWSTGSTYYADSVKGRFTISRDNAKNTVYLLMNSLKPEDTAVYYCPAEFHWWYAGYDYGYWGQGTQVTVSS | low polyreactivity |
| QVQLVESGGGLVQAGGSLRLSCAASGNIFYVYVMGWYRQAPGKERELVAAISRGGGSTYYADSVKGRFTISRDNAKNTVSLQMNSLKPEDTAVYYCAARRGYPSGYEYWGQGTQVTVSS | high polyreactivity |
| QVQLVESGGGLVQAGGSLRISCASSGNTFTSYAMGWYRQAPGKASELVASIDSDDSTNYADSVKGRFTISRDNAKNTDYFQMNSLKPEETAVFYCAASDNDDWYYVYHYDYWVQGTQVTVSS | low polyreactivity |
| QVQLVESGGGLVQAGCSLRLSCAASGLTFAKYAMGWYRHAPGKEWELVAAISRSGGSTYYADSVKGRFTISRDNAKNTVYLQMNSLKPEDTAVYYCAKSSGTLWITKYDYWGQGTQVTVSS | low polyreactivity |
| QVQLVESGGGLVQAGGSLRLSCAASGSIFYTNVMGWYRQAPGKERELVARIDSGGSTNYADSVKGRFTISRDNAKNTVFLQMNSLNPEDTAVYYCAADWYIYDYWGQGTQVTVSS | low polyreactivity |
| QVQLVESGGGLVQAGCSLRLICAASALTFYHKAMGWYRPAPVKERELVAPISSSGDSTYSADSVKGRFTISHDNGKNTVYLQMNSLKPEYTAVYYCAADLGYYNARWYEYWGQGTQVTVSS | high polyreactivity |
| QVQLVESGGGLVQAGGSLRLSCAASGSIFGSYAMGWYRQGAGKERELVAGITYDGGSTYYADSVKGRFTISRDNAKNTVYLQMNSLKPEDTAVYYCAAVDIRLEWDFWFQPTYEYWGQGTQVTVSS | low polyreactivity |
| QVQLEESGGGLVQAGGSLRLSCAASGSTFGNYAKGWYRQAPGKERELVAAITATGGRTYYADSVKGRFTISRDNAKNTVYLQMNSVKPEDTAVYYCAAGYRTGGDSGDYWGQGTQVTVSS | high polyreactivity |
